Target: Spc105-mCherry (S. cerevisiae) (UniProt P53148)
Assay: co-IP; RFP-Trap beads (Chromotek) on cleared yeast lysates in buffer H 0.15 (25 mM HEPES pH 8.0, 150 mM KCl, 0.1% IGEPAL), overnight; blots with anti-GFP and anti-DsRed; band intensities by ImageJ, normalised to full length, input and Spc105 IP

UniProt P53148, sequence (P53148 whole entry): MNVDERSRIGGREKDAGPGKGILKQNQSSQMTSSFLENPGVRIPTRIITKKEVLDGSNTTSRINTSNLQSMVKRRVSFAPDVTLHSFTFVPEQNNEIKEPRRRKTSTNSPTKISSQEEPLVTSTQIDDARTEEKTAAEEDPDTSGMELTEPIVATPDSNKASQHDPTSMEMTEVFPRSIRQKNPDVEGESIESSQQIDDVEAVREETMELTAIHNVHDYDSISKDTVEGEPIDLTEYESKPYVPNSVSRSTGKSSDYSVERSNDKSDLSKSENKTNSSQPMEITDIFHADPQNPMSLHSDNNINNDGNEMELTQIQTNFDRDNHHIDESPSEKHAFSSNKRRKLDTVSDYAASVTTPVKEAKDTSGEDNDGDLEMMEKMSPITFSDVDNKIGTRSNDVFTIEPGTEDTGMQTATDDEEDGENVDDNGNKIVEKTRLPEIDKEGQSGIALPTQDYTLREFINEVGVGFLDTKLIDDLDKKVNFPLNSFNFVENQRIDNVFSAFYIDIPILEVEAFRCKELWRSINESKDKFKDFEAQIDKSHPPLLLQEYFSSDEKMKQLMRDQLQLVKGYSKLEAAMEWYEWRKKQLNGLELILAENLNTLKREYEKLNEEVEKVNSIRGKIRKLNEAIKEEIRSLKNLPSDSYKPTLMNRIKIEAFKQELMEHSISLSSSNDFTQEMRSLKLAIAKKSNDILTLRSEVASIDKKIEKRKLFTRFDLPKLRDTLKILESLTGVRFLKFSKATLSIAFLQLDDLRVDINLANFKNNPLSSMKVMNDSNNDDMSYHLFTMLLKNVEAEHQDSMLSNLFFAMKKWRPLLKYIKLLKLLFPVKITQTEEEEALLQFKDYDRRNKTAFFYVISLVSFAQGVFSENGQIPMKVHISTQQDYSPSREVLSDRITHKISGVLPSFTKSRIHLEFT

reduction of co-precipitation against full-length Kre28: 40%
Substance: GFP-kre28^Δ127–182 (from UniProt Q04431 1-385) (natural protein)

Source: paper PMC8767186
